B1: wild type NSP3 (non-structural protein 3) of simian species A rotavirus strain RRV [simian rotavirus A strain RRV] / itself (parent complex)
chain: MESTQQMASSIINSSFEAAVVAATSTLELMGIQYDYNEVYTRVKSKFDLVMDDSGVKNNLIGKAITIDQALNGKFSSAIRNRNWMTDSRTVAKLDEDVNKLRIMLSSKGIDQKMRVLNACFSVKRIPGKSSSIVKCTRLMKDKLERGEVEVDDSFVEEKMEVDTIDWKSRYEQLEKRFESLKHRVNEKYNHWVLKARKVNENMNSLQNVISQQQAHINELQMYNNKLERDLQSKIGSVVSSIEWYLRSMELSDDVKSDIEQQLNSIDQLNPVNAIDDFESILRNLISDYDRLFIMFKGLLQQCNYTYTYE

Variants of: B1
Assay: non-dissociating Western blot (WB-ND) densitometry; parent: 1; read off a plot

Variant | ratio to parent
MESTQQMASSIINSSFEAAVVAATSTLELMGIQYDYNEVYTRVKSKFDLVMDDSGVKNNLIGKAITIDQALNGKFSSAIRNRNWMTDSRTVAKLDEDVNKLRIMLSSKGIDQKMRVLNACFSVKRIPGKSSSIVKCTRLMKDKLERGEVEVDDSFVEEKMEVDTIDWKSEYEQLEKRFESLKHRVNEKYNHWVLKARKVNENMNSLQNVISQQQAHINELQMYNNKLERDLQSKIGSVVSSIEWYLRSMELSDDVKSDIEQQLNSIDQLNPVNAIDDFESILRNLISDYDRLFIMFKGLLQQCNYTYTYE [chain 1 R170E] | ~0.17
MESTQQMASSIINSSFEAAVVAATSTLELMGIQYDYNEVYTRVKSKFDLVMDDSGVKNNLIGKAITIDQALNGKFSSAIRNRNWMTDSRTVAKLDEDVNKLRIMLSSKGIDQKMRVLNACFSVKRIPGKSSSIVKCTRLMKDKLERGEVEVDDSFVEEKMEVDTIDWESRYEQLEKRFESLKHRVNEKYNHWVLKARKVNENMNSLQNVISQQQAHINELQMYNNKLERDLQSKIGSVVSSIEWYLRSMELSDDVKSDIEQQLNSIDQLNPVNAIDDFESILRNLISDYDRLFIMFKGLLQQCNYTYTYE [chain 1 K168E] | ~0.32
MESTQQMASSIINSSFEAAVVAATSTLELMGIQYDYNEVYTRVKSKFDLVMDDSGVKNNLIGKAITIDQALNGKFSSAIRNRNWMTDSRTVAKLDEDVNKLRIMLSSKGIDQKMRVLNACFSVKRIPGKSSSIVKCTRLMKDKLERGEVEVDDSFVEEKMEVDTIDWKSRYEQLEKRFESLKHEVNEEYNHWVLKARKVNENMNSLQNVISQQQAHINELQMYNNKLERDLQSKIGSVVSSIEWYLRSMELSDDVKSDIEQQLNSIDQLNPVNAIDDFESILRNLISDYDRLFIMFKGLLQQCNYTYTYE [chain 1 R184E, chain 1 K188E] | ~0.13
MESTQQMASSIINSSFEAAVVAATSTLELMGIQYDYNEVYTRVKSKFDLVMDDSGVKNNLIGKAITIDQALNGKFSSAIRNRNWMTDSRTVAKLDEDVNKLRIMLSSKGIDQKMRVLNACFSVKRIPGKSSSIVKCTRLMKDKLERGEVEVDDSFVEEKMEVDTIDWKSRYEQLEKRFESLKHRVNEKANHWVLKARKVNENMNSLQNVISQQQAHINELQMYNNKLERDLQSKIGSVVSSIEWYLRSMELSDDVKSDIEQQLNSIDQLNPVNAIDDFESILRNLISDYDRLFIMFKGLLQQCNYTYTYE [chain 1 Y189A] | ~1.8
